# Results published in PMC5829129, “Synthesis of an Al^18F radiofluorinated GLU-UREA-LYS(AHX)-HBED-CC PSMA ligand in an automated synthesis platform” (EJNMMI Radiopharmacy and Chemistry, 2018).
# Like-named read-outs stand apart in the source and are kept apart here.
# Experiments:
# [1] = cited from earlier work
# Text: However, the work of S. Lütje, et al. presented in the EANM 2017, obtain a product which is not stable in PBS, TFA or ethanol. In addition, the product presented in vivo a bone uptake associated with instability of the compound. (Lütje et al. [2017]). Nevertheless E. Al-Momani et al. (Al-Momami et al. [2017]) reported that the stability of the radiopharmaceutical was highly dependent of the formulation conditions, being stable in saline solution with 1% of ethanol or acetate buffer pH 6, and not stable in ethanol 10%/PBS.
# [2] = cited from earlier work; remark: listed apart in the source
# Text: However, the work of S. Lütje, et al. presented in the EANM 2017, obtain a product which is not stable in PBS, TFA or ethanol. In addition, the product presented in vivo a bone uptake associated with instability of the compound. (Lütje et al. [2017]). Nevertheless E. Al-Momani et al. (Al-Momami et al. [2017]) reported that the stability of the radiopharmaceutical was highly dependent of the formulation conditions, being stable in saline solution with 1% of ethanol or acetate buffer pH 6, and not stable in ethanol 10%/PBS. || Our results with the automated synthesis were in agreement with those previously reported by N. Malik, et by a manual process. In this paper the optimal pH of labeling turned out to be 5 and the stability was greater than 90% at 4 h post production (Malik et al. [2015]). || Recently Kersemans et al. ([n.d.]) have reported an automated synthesis of this radiopharmaceutical in a modified SynthraFCHOL synthesis module (Synthra GmbH, Hamburg, Germany), with a similar e.o.s yield. 100 to 200 μg of the peptide were necessary to achieve a labelling yield higher than 70%. The radiopharmaceutical was stable in buffer phosphate 5 mM pH 7 at least during 150 min.
# [3] = format: physicochemical; conditions: for Radiochemical purity in the final formulation at room temperature: final formulation vial, HPLC C8, gamma detector, n = 3
# Description: The radiochemical purity (RP) was determined using HPLC analysis, a reverse phase column Agilent ZORBAX Eclipse Plus C8 4.6x150mm 5 μm column, flux 2.0 mL/min and the following solvent gradient: (A) TFA 0.1% (v/v) in water, (B) TFA 0.1% (v/v) in acetonitrile; 0–7 min 0 %B, 7–10 min (0–50) %B with GAMMA detector. The stability in the labeling milieu, after purification and preconditioning [^18F]-AlF-PSMA, was performed after incubation the final formulation vial at room temperature for 4 h. In both cases, samples were analyzed by HPLC, using previously described chromatographic conditions.
# [4] = system: LNCaP human prostate cancer cell line xenograft; assay: In vivo PET/CT imaging of LNCaP xenograft mice, tumour/muscle ratio; set-up: species or system Nude N: NIH (S) – Foxn 1nu mice; conditions: PET, 60 min after iv injection (33–46 MBq), LNCaP xenograft nude mice, n = 3
# Description: Nude N: NIH (S) – Foxn 1nu mice […] were used as prostate cancer tumour model, for in vivo studies. Animals were housed in racks with filtered air under controlled conditions temperature (24 ± 1) °C and relative humidity (40–60)%). They were maintained on a 14:10 h light/dark cycles in the CUDIM animal facility with food and water ad libitum.
# For the development of a xenographic human prostate cancer model, LNCaP human prostate cancer cell line (ATCC ATCC® CRL-1740™).
# A xenographic human prostate cancer model was used as the prostate cancer tumour model. 5 million LNCaP cells, suspended in 200 μL of culture media (RPMI) with matrix gel, were injected subcutaneously into the left upper leg of male nude mice (2 months old). Appropriate tumour volumes (100–350 mm^3) were achieved between four to six weeks post inoculation. Percutaneous testorerone was daily applied to each mice. Tumours were measured once a week with a microcalliper in two dimensions, and tumour volumes were calculated as (smaller diameter)^2 x larger diameter x π/6.
# PET/CT scans were performed using a small animal tri-modality PET/SPECT/CT scanner (TriumphTM, TriFoil, Inc., US) based on Quad-APD detector modules coupled with LYSO/LGSO scintillators (spatial resolution: 1.0 mm; axial field of view (FOV): 3.75 cm). […]
# Image processing and semi-quantitative analysis was done using PMOD software, v.3.4. […]
substance,measurement,setting,value
[^18F]AlF-[GLU-UREA-LYS(AHX)-HBED-CC] [[^18F]AlF-PSMA-11],In vivo bone uptake associated with instability of the compound,[1],bone uptake
same,"Stability in PBS, TFA or ethanol",[2],not stable
same,Stability in ethanol 10%/PBS,[2],not stable
same,Stability at 4 h post production,[2]; pH 5,greater than 90%
same,Stability in saline solution with 1% of ethanol or acetate buffer pH 6,[2]; pH 6,stable
same,Time of stability in buffer phosphate 5 mM pH 7,[2]; pH 7,≥ 150 min
same,Time of stability in the final formulation vial,[3],4 h
same,Radiochemical purity in the final formulation vial,"[3]; during 4 h post production, room temperature, HPLC",greater than 90%
same,Radiochemical purity in the final formulation at room temperature,"[3]; room temperature, 1 h post synthesis",94.6 ± 1.8%
same,Radiochemical purity in the final formulation at room temperature,"[3]; room temperature, 2 h post synthesis",92.8 ± 2.5%
same,Radiochemical purity in the final formulation at room temperature,"[3]; room temperature, 3 h post synthesis",93.7 ± 2.0%
same,Radiochemical purity in the final formulation at room temperature,"[3]; room temperature, 4 h post synthesis",94.2 ± 2.8%
same,"mean T/M ratio (T = Tumor, M = muscle)",[4],2.2 ± 0.9
